According to patent publication US20100061979A1:
pKd: −log10 of the molar value.

Legend:
FGF-2 [1] = target: FGF-2 (UniProt P09038); assay: BIAcore, two-state reaction with conformation change model
FGF-2 [2] = target: FGF-2 (UniProt P09038); assay: BIAcore

UniProt P09038, sequence (P09038 143-288 limits assumed): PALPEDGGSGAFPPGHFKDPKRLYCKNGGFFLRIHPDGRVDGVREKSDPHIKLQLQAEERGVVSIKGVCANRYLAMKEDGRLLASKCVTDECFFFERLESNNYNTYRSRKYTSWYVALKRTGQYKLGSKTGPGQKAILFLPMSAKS

- pKd (FGF-2 [1]): 8.92
- pKd (FGF-2 [2]): 8.92
Substance: sFGFR2-Fc variant 4493 (no Ig-like domain 1) (from UniProt P21802 126-377) (Fc fusion)
